# Experimental data published in the DeepSol protein solubility set.
# Experiment: soluble on expression in E. coli; label from the status in PepcDB or PDB records
row,Sequence,soluble on expression in E. coli
1,MSLFAAQYIGNKSFNVVEGHAIAPQAGEVRLDVGYVGICGTDMHIYHGVMDQRVSIPQTIGHEISGVVAQIGEGVEGFTVGEKVVVRPLDWCGECPTCEAGLTHICQNLKFMGIDTPGAFQSSWTVKARTLHKLPAGVDLKQGALVEPLSVACHDVRRSRLKAGEKAVILGGGPIGQLVAAVAKSVGAEVLVSEPNDSRREFADELGVKSVNPMDTDLAAYVDQWTGTKGADVVFEVSGVLPAIQSMTQIAGRRGRIVMVAIHSTAPPIDLFQFFWKELELLGARVYEAADFDWAIELIASGQIDLKPFISSVSPLADIGSAFANMDGNPQGMKALVECNAEEGHHHHHH,soluble
2,MGSSHHHHHHSSENLYFQGHMSDLPRISVAAPRLDGNERDYVLECMDTTWISSVGRFIVEFEKAFADYCGVKHAIACNNGTTALHLALVAMGIGPGDEVIVPSLTYIASANSVTYCGATPVLVDNDPRTFNLDAAKLEALITPRTKAIMPVHLYGQICDMDPILEVARRHNLLVIEDAAEAVGATYRGKKSGSLGDCATFSFFGNKIITTGEGGMITTNDDDLAAKMRLLRGQGMDPNRRYWFPIVGFNYRMTNIQAAIGLAQLERVDEHLAARERVVGWYEQKLARLGNRVTKPHVALTGRHVFWMYTVRLGEGLSTTRDQVIKDLDALGIESRPVFHPMHIMPPYAHLATDDLKIAEACGVDGLNLPTHAGLTEADIDRVIAALDQVLV,soluble
3,ARQENPCGPCSERRKHLFVQDPQTCKCSCKNTDSRCKARQLELNERTCRCDKPRR,soluble
4,MGSDKIHHHHHHMTRSTIGGKRFEPIPARFSSIGAGLMNIKQLEVLRTLLSTGSTIATAKAMGLSQSGISRLLAQLEADLSLTLFARDKGRLIPTPEAALLARDAENVLLAVDRMSGHAEDLRNGAAGPEIVRIGLPSSMWENFAPAMLIDYVRDFPGVRIETFFETTTAINKLVGERVIDLGFLRMEGEIGPGIDVERVATGKSVCVVREDHPLADLQEITVKDLRNIPLILIGRQRPNRMALDQVFKKAGVKPMVKIETHTNSSACAYVAHGLGVTIISSFYANLYRHLPVVARPFVPQATQEFGLARASGAPLSIAAQALSNALKREIQLSQKID,not soluble
5,MSLNQASLERNELHNTIWKVANELRGSVDGWDFKQYVLGILFYRYISENMTHYINKEERKRDPSFDYAKLSDEKAERGRKHLIEQKGFFIPPSALFCNALKNACHNEDLNVTLQNIFNEIEKSSLGTPSEENVKGLFADLDVNSNKLGSSHQNRVEKLTKILEAIGGMQLGDYLKSGIDVFGDAYEYLMAMYASNAGKSGGEFFTPQEVSELLAKITLHGQESVNKVYDPCCGSGSLLLQFSKVLGDKNVSKGYFGQEINLTTYNLCRINMFLHDINYSKFHIAHGDTLLDPKHEDDEPFDAIVSNPPYSTKWVGDSNPILINDERFSPAGVLAPKNAADLAFTMHMLSYLSNSGTAAIVEFPGVLYRGNAEAKIREYLVKENVIDCVIALPDNLFFGTSIATCILVLKKNEGHHHHHH,not soluble
6,GLIDAHGHVIGYGHSLLRVDLVNATSELDAVNRTISYAKDNPSMSWILGRGWNQVQWSNNSYPNAKSLDEAFPNKPVWLRRVDGHAGWANSKAMALAGITSASKAPVGGDIIKDKNGLPTGIFIDNAMTLITASITPPSPMEDKIALKRAMHSLASLGLTSVHDAGIEQKDIALYKTLASEGNMTIRINGMLYLPSTNWQQQLEQGPYRTEDEMFAVNSVKIQADGALGSRGASLINDYSDHSGHKGLLLHDKKSLQHYIDFAMNAGFQVNTHAIGDNANKLILDLYQQAIQKSQTKALRHRIEHAQVLRLEDISRFSSLNVIASMQATHATSDKNMAVTRLGGKRILGAYAWRKLLDSNTIIAAGSDFPVESPNPFFGLHASITRQDHKDLPIGGWYADQKMTRTEALRSFTIDAAYAGHQEKLIGSLEAGKKADFILLADDLLTMPESTIWQSQVSQTWVAGKKVFSAIDVPSVE,not soluble
7,LGFNLKEAASIGIIGGADGPTTIYLTTKLAPHILSATAVAAYSYMSLVPLIQPPVIKALTTPEERRIRMEQLRPVSKREK,not soluble
8,MKRVGKQTWVFDDGVYIQAAAAAVGPLEADGPLGSYFDVCHRDLYCGEATWELAERRLMREAVDCCLQKAGVSAEEVDLLLAGDLLNQNATSNYVARELPIPFLCLFGACSTSMQTLAAAAAFVAGGLADRALAATSSHNATAERQFRYPTELGVQKPKTATFTVTGAGAALVGRAPGRWRVRAATIGKVVDAGLKNPLDMGAAMAPAAADTIEQHFRDLGVSPGDYDLIVTGDLSRVGSVIVRELLAESGYDVTDVYNDCGLMIYRPDQKVFAGGSGCACSAVVTYGYLLQELARGTFRRLFVVATGALLSQTMVQQKQSIPAIAHGVVIEAAGQEPDLPP,not soluble
9,LLQTMLSMTSHGPAQVFTERYQLIVQPLGLSQQVEKDSLDLLADYLHGFALSISCCHDASLIKTDMLDGPLKLICSSLLASRT,not soluble
10,MGSDKIHHHHHHMMTYYFIADLHLNESQPQITHQFLQFMQQKAPLAQAVYILGDFFDFWIGDDEQSVLISQVKLALKKLTASGVKCYFICGNRDFLLGQTFAQQTGIQLLADYHLLDLFGERTLLCHGDTLCIDDIKYQQFRRRVHQKRLQKLFLWLPLTLRIKIAQKIRRKSKQDKKNKSADIMDVNQAFTAQKVHQYGATHLIHGHTHRQAVHFEQNFTRIVLGDWRPDRSSILKVDEKGFEFL,not soluble
11,SLKQPVFKKVLQVGIVVHDLEKAVRTYADDFGIGPWQFYNLDKSNMHDMKMRGEKAEFSMKVAFTDLGGVQLELIEPLDESIYSDFLREHGEGIHHIACGVRNFEETMASMQKKDIKVLLEGTTSAGMGYVYLDTTDALSCITEIYRIPENLQYIPPDKTYEG,soluble
12,MAHHHHHHMSDAQTVQTLVLWNGEWPYVKRGVSEVRAVAAGVIASANALVDVPAYLARARKYTAAADDFVTAQSARASSTLESHQWVVPAAGIALASVYVVVRSAPWGGMKMMRNGLVTAGALTAFMYPREIVHQIDRAMPFQAPASISEQKNES,not soluble
13,MGSDKIHHHHHHMEMMRDAVQFEPADSRVTRPSFWSSLPERWTSDVEETLVCCHVRQETHDVKSFFFHSPDGRAFVFEPGQFITLELEIEGETINRCYTISSSPARPHTLSITVKRVPGGKVSNWLHDNVRPGTPIRVLGPAGEFTCARHPARKYLFLSAGSGITPLMSMSRAHHDLGEDRDIVFVHSARTPDDIIFSRELDLIASNHANFRTSFVCESVGARTSWPGVTGFLSLPLLKLIAPDFMEREIFTCGPAPYMKAVRDLLDEGGFDRRRYHEESFSFETLTADGPADAPAPDTGVASAPHGIADMAAFSVSFAKSRREIVCSSGQHVLEAARQSGVRLPASCTQGMCGTCKVKLVSGQVEMKHNGGIRQREIDQGMVLLCCSKPLSDLVIDK,not soluble
14,DRILAQERLCRSEERYRLLFEEMMSGCALHELICDRDGNPADYRFLAVNGAFERMTGLRAADIVGKTVLEVMPGTERHWIERYGDVALSGRSAEFEEYAGAIGRYYSVRAYCPERGKFAAVFNDIT,not soluble
15,MKFNCPLIVVNDINISRKFYEEVLCQKIKYDFGENVVYEGDFSLQLKSHFANMIDIDEKSIKFQSNGFELYFEEDNIEAFLNKLKQNKGINYIHSLLEHPWGQRVIRFYDPDMHIIEVGESMEGVIKRFFNEGMSIDEITKRTQHPLEFVKRVLHYKLTLEHHHHHH,soluble
16,MGSDKIHHHHHHVTVHGLPAPSADTALYQSIMEAGFTAFPERLANWRRFKAAQRGERLDYLPVKLDVEHVSRCNYRCTMCQVSDWPKMTRAADMTVGDFKSLLEQQIGVVEIKLQGMGEPLLAAESFFEMIRHARERHIWVRATTNGSLLHIKENYKGLVESDICEIQVSIDGARPETYEAIRRGGKFERVAENCRLLNAHAAQDGRERTRMWVVVQQGNLADLDLLPKAAAEMGFKRLTLSLDLTSWGQETWERNNEALDAHDLLPVEKAWALVEEGKRLGVEVTFWAIDSKYDWSDPAKLCPWPFERAYIASDMRVVPCCMIANPDVLDMGDARDLTGVWTGERMAEFRRAHLEGRIPEVCNSCYRDPPAP,not soluble
17,MTSVSGCGSVSLITNRSAFLGNGLQHRAVFLKPWSSSSLQSRSMVVEAKTKTSSEDRIARHSRIRKKVNGTTERPRLCVFRSNKHLYVQVIDDTKMHTLASASTKQKPISEEFDYTSGPTIEVAKKVGEVIAKSCLEKGITKVAFDRGGYPYHGRIEALAAAAREHGLQF,not soluble
